One block for each binder: values may come before it.
Legend:
[1] = biological target: T1, human CD40L expressed on HEK293 cells (human, UniProt P29965 1-261); assay: flow cytometry, clone at 1 uM on hCD40L-HEK293 cells (hatched), HEK-293 negative cells as control (open), detection anti-Cystatin A + A488 anti-goat
T1 construct: whole, on cells; also called hCD40L-HEK293 cells; hCD40L-HEK-293 cells (Crown Biosciences, C2041)
T1 sequence (looked up): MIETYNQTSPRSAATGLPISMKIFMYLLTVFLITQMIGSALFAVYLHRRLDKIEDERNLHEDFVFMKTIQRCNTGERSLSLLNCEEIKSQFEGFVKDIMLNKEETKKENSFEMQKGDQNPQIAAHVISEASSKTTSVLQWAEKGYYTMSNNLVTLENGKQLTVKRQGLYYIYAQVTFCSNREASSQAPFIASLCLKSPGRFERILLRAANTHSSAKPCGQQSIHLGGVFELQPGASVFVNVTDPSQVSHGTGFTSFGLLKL
Description: The cells were resuspended in PBS and 200,000 cells per well were dispatched in a round bottom 96 well plate. Cells were washed with PBS. The stefin A protein variant and controls were diluted in staining buffer containing 1% BSA, 0.01% Sodium Azide (NaN3), 2 mM EDTA in DPBS in duplicate and added on cells for staining for approximately 60 min at 4±1° c. Cells were washed and the secondary anti-Cystatin A (R&D, AF1407) was diluted 0.2 mg/ml in staining buffer and added on cells for staining for approximately 45 min at 4±1° c. Cells were washed again and the detection antibody A488 anti-goat (ThermoFisher, A21467) was diluted 1:500 in staining buffer and added to the cells for staining (approximately 30 min at 4±1° C.). Finally, the cells were washed and live and dead cells were stained using L/D stain Zombie Yellow (Biolegend, 423103) diluted in staining buffer for 10 min at 4±1° C. Cells were washed again and fixation buffer (R&D) was added to each well for 10 min at 4±1° C. then PBS with EDTA (Lonza) was added prior reading the plate on the flow cytometer (Guava 12 HT, Millipore). Dead cells were excluded, and the fluorescent green channel (488 nm/525/30) was acquired. Results were analyzed using Incyte and data were plotted using GraphPad.

human CD40L [2] = biological target: T2, human CD40L (human, UniProt P29965 113-261, limits assumed); assay: cell-based or functional assay
T2 sequence (looked up): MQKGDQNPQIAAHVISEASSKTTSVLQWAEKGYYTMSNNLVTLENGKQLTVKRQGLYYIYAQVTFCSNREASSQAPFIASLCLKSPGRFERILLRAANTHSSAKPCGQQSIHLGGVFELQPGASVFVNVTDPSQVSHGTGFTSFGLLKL

human CD40L [3] = biological target: T2, human CD40L; assay: BIACORE (SPR) on hCD40L, kinetic fit; immobilised partner not stated
human CD40L [4] = biological target: T2, human CD40L; assay: direct binding ELISA on plate-coated hCD40L (5 ug/ml), detection biotinylated anti-cystatin A antibody + polyHRP-streptavidin, OD 450-630 nm
Description: (§1) Plates were washed 2 times with 150 μl of washing buffer (PBS, Tween 20 0.1%) with a plate washer and saturated with Casein 5% (Sigma) in PBS for 90 minutes at room temperature (25±1° C.). For binding, each DAW01 clone and rhCD40 Fc were added to the plate, starting from 1 μM, 1 in 3 and 300 nM, 1 in 3 respectively. Plates were washed 3 times as described previously. […] Then, cystatin A biotinylated polyclonal antibody (BAF1407) was diluted to a concentration of 0.05 μg/ml in dilution buffer (PBS, 1% casein, 0.01% Tween 20) and the plate was incubated for 90 minutes at room temperature (25±1° C.). PolyHRP-streptavidin was then diluted in dilution buffer and the plates were incubated for 90 minutes at room temperature (25±1° C.). The plates were then washed 3 times as described previously, and the substrate (TMB, Pierce Thermo-Scientific) was added to the plates for 10 minutes. The reaction was stopped using an acidic solution, and plates were read at 450-630 nm.

human CD40L [5] = biological target: T2, human CD40L; assay: cell-based or functional assay; remark: listed apart in the source
human CD40L [6] = biological target: T2, human CD40L; assay: cell-based or functional assay; remark: listed apart in the source
human CD40L [7] = biological target: T2, human CD40L; assay: competitive ELISA: hCD40L (1 nM) premixed with the binder and added to plate-coated rhCD40 Fc; bound hCD40L detected with biotinylated anti-hCD40L polyclonal antibody
Description: To evaluate the avidity of the different formats, a CD40L competitive ELISA was performed. Briefly, the plates were coated with rhCD40 Fc at 1 μg/ml and incubated overnight at 4° C. The plates were washed twice with 150 μl of washing buffer (PBS, Tween 20 0.1%) with a plate washer and saturated with Casein 5% (Sigma) in PBS for 90 minutes at room temperature (25±1° C.). […] The resulting solution was then mixed and added to the plates. The plates were washed 3 times as described previously. […] The plates were incubated for 90 minutes at room temperature (25±1° C.). The plates were then washed. PolyHRP-Streptavidin was then diluted in dilution buffer and added to the plates. The plates were incubated an additional 90 minutes at room temperature (25±1° C.). Plates were washed 3 times as described previously and the substrate (TMB, Pierce Thermo-Scientific) was added in the plate for 10 minutes. The reaction was stopped using an acidic solution and the plates were read at 450-630 nm and the resulting percent inhibition was calculated.

human CD40L [8] = biological target: T2, human CD40L; assay: ELISA on plate-coated hCD40L in the presence of HSA (10 uM), detection with anti-cystatin antibody, OD 450-630 nm
human CD40L [9] = biological target: T2, human CD40L; assay: bridging ELISA: capture on plate-coated hCD40L, HSA 10 uM, detection with anti-HSA antibody, OD 450-630 nm
Description: After saturation with 5% casein/PBS buffer, the plates were washed and a dilution of Stefin A protein variant or controls was incubated with HSA at a final concentration of 10 μM for 90 minutes. Plates were then washed, and a […], anti-HSA (HRP-conjugated) (Abcam), was added for 90 minutes. After a last washing step, TMB was added for the development of the experiment and the plates were read at 450 nm. The EC50 was then calculated using the interpolated non-linear four-parameters standard curve (FIG. 12C).

human CD40L [10] = biological target: T2, human CD40L; assay: ELISA on plate-coated hCD40L, no HSA, detection with anti-cystatin antibody, OD 450-630 nm
Description: After a last washing step, TMB was added for the development of the experiment and the plates were read at 450 nm. The EC50 was then calculated using the interpolated non-linear four-parameters standard curve (FIG. 12C).

human CD40L [11] = biological target: T2, human CD40L; assay: direct binding ELISA on plate-coated hCD40L (5 ug/ml), detection biotinylated anti-cystatin A antibody + polyHRP-streptavidin, OD 450-630 nm; the table prints 268, the curve legend prints Clone -288 in its place
Description: as §1

% Positive [1]: 98.8% | MFI [1]: 8990 MFI | EC50 (HEK-Blue cell-based assay, % inhibition) (human CD40L [2]): 608 nM | Kd (human CD40L [3]): 8.15 nM | koff (human CD40L [3]): 0.000975 s⁻¹ | kon (human CD40L [3]): 120000 M⁻¹ s⁻¹ | EC50 (human CD40L [4]): 0.67 nM | EC50 (HEK-Blue CD40 reporter cells, SEAP, OD 640 nm, hCD40L 0.8 nM) (human CD40L [5]): 11.6 nM
B1: stefin A protein variant clone 230 (designed binder)
chain: MIPGGLSEAKPATPEIQEIVDKVKPQLEEKTGETYGKLEAVQYKTQVVHYYVHYNDQGTNYYIKVRAGDNKYMHLKVFKSLWGENLFAKWEDLVLTGYQVDKNKDDELTGF

% Positive [1]: 98.8% | MFI [1]: 9890 MFI | EC50 (HEK-Blue cell-based assay, % inhibition) (human CD40L [2]): 1190 nM | Kd (human CD40L [3]): 3.74 nM | koff (human CD40L [3]): 0.00207 s⁻¹ | kon (human CD40L [3]): 553000 M⁻¹ s⁻¹ | EC50 (HEK-Blue CD40 reporter cells, SEAP, OD 640 nm, hCD40L 0.8 nM) (human CD40L [5]): 101 nM
B2: stefin A protein variant clone 247 (designed binder)
chain: MIPGGLSEAKPATPEIQEIVDKVKPQLEEKTGETYGKLEAVQYKTQVVHHAYAAVYVGTNYYIKVRAGDNKYMHLKVFKSLPYWYRKYPDEDLVLTGYQVDKNKDDELTGF

EC50 (human CD40L [11]): 31.2 nM | % Positive [1]: 95.7% | MFI [1]: 7780 MFI
B5: stefin A protein variant clone 268 (designed binder)
chain: MIPGGLSEAKPATPEIQEIVDKVKPQLEEKTGETYGKLEAVQYKTQVVGDSYWEYVSGTNYYIKVRAGDNKYMHLKVFKSLPYRWRPDHAEDLVLTGYQVDKNKDDELTGF

The next lines start with the binder.

B3: clone-230 DT (trimer with a rigid linker) (designed binder)
chain: IPGGLSEAKPATPEIQEIVDKVKPQLEEKTGETYGKLEAVQYKTQVVHYYVHYNDQGTNYYIKVRAGDNKYMHLKVFKSLWGENLFAKWEDLVLTGYQVDKNKDDELTGFAEAAAKEAAAKEAAAKEAAAKEAAAKEAAAKMIPGGLSEAKPATPEIQEIVDKVKPQLEEKTGETYGKLEAVQYKTQVVHYYVHYNDQGTNYYIKVRAGDNKYMHLKVFKSLWGENLFAKWEDLVLTGYQVDKNKDDELTGFAEAAAKEAAAKEAAAKEAAAKEAAAKEAAAKMIPGGLSEAKPATPEIQEIVDKVKPQLEEKTGETYGKLEAVQYKTQVVHYYVHYNDQGTNYYIKVRAGDNKYMHLKVFKSLWGENLFAKWEDLVLTGYQVDKNKDDELTGF
IC50 (read off the curve) (human CD40L [6]): ~2 nM | IC50 (read off the curve) (human CD40L [7]): ~4 nM

B4: clone-230 XT76 (tetramer with a rigid linker and an HSA binding stefin A protein variant) (designed binder)
chain: IPGGLSEAKPATPEIQEIVDKVKPQLEEKTGETYGKLEAVQYKTQVVHYYVHYNDQGTNYYIKVRAGDNKYMHLKVFKSLWGENLFAKWEDLVLTGYQVDKNKDDELTGFAEAAAKEAAAKEAAAKEAAAKEAAAKEAAAKMIPGGLSEAKPATPEIQEIVDKVKPQLEEKTGETYGKLEAVQYKTQVVHYYVHYNDQGTNYYIKVRAGDNKYMHLKVFKSLWGENLFAKWEDLVLTGYQVDKNKDDELTGFAEAAAKEAAAKEAAAKEAAAKEAAAKEAAAKMIPGGLSEAKPATPEIQEIVDKVKPQLEEKTGETYGKLEAVQYKTQVVHYYVHYNDQGTNYYIKVRAGDNKYMHLKVFKSLWGENLFAKWEDLVLTGYQVDKNKDDELTGFAEAAAKEAAAKEAAAKEAAAKEAAAKEAAAKMIPGGLSEAKPATPEIQEIVDKVKPQLEEKTGETYGKLEAVQYKTQVVHYYVHYNDQGTNYYIKVRAGDNKYMHLKVFKSLWGENLFAKWEDLVLTGYQVDKNKDDELTGFAEAAAKEAAAKEAAAKEAAAKEAAAKEAAAKMIPRGLSEAKPATPEIQEIVDKVKPQLEEKTGETYGKLEAVQYKTQVLANFFQRRWPGSTNYYIKVRAGDNKYMHLKVFNGPWKFRNTDRGADRVLTGYQVDKNKDDELTGF
IC50 (read off the curve) (human CD40L [6]): ~2 nM | EC50 (human CD40L [8]): 0.1 nM | EC50 (human CD40L [9]): 0.8 nM | IC50 (read off the curve) (human CD40L [7]): ~3 nM | EC50 (human CD40L [10]): 0.07 nM

B6: clone-230 DS (tetramer with a rigid linker) (designed binder)
chain: IPGGLSEAKPATPEIQEIVDKVKPQLEEKTGETYGKLEAVQYKTQVVHYYVHYNDQGTNYYIKVRAGDNKYMHLKVFKSLWGENLFAKWEDLVLTGYQVDKNKDDELTGFAEAAAKEAAAKEAAAKEAAAKEAAAKEAAAKMIPGGLSEAKPATPEIQEIVDKVKPQLEEKTGETYGKLEAVQYKTQVVHYYVHYNDQGTNYYIKVRAGDNKYMHLKVFKSLWGENLFAKWEDLVLTGYQVDKNKDDELTGFAEAAAKEAAAKEAAAKEAAAKEAAAKEAAAKMIPGGLSEAKPATPEIQEIVDKVKPQLEEKTGETYGKLEAVQYKTQVVHYYVHYNDQGTNYYIKVRAGDNKYMHLKVFKSLWGENLFAKWEDLVLTGYQVDKNKDDELTGFAEAAAKEAAAKEAAAKEAAAKEAAAKEAAAKMIPGGLSEAKPATPEIQEIVDKVKPQLEEKTGETYGKLEAVQYKTQVVHYYVHYNDQGTNYYIKVRAGDNKYMHLKVFKSLWGENLFAKWEDLVLTGYQVDKNKDDELTGF
IC50 (read off the curve) (human CD40L [6]): ~0.6 nM | IC50 (read off the curve) (human CD40L [7]): ~2 nM
